In the supplement of paper PMC10567573 one finds protein stability index data, which are given here for 29 sequences.

A short description of the series: protein stability index of a GFP-peptide fusion (GPS, HEK-293T) (PSI 1-6); higher = more stable. Conditions: c terminus: a fixed tail appended.

± gives the standard deviation.
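Further: 24-mer peptide tiles fused after GFP, lentivirally expressed, FACS-sorted into six equal bins by GFP/DsRed ratio, decoded by Illumina sequencing, PSI is the read-weighted mean bin number.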

Consider QLQSMPSRELASMNLDIVDLLKKA [RHOBTB3], for which the protein stability index (treatment: DMSO) came out at 3.46 ± 0.35 and the protein stability index (treatment: MLN4924 1 uM, 8 h) stood at 3.79 ± 0.47.

Consider QMMPYMQPVMQSDRTAIRSDTTHL [KLHL13], for which the protein stability index runs as follows: (treatment: DMSO) 3.5 ± 0.24; (treatment: MLN4924 1 uM, 8 h) 3.5 ± 0.23.

Regarding QNPKDCSKAKKLVCNINKGCGYGC [FUT8], the protein stability index runs as follows: (treatment: DMSO) 3.53 ± 0.1; (treatment: MLN4924 1 uM, 8 h) 3.48 ± 0.17.

On to QPLEASNPALEGLTQPLQGGTPHC [DNAAF3], for which the protein stability index reads like this: (treatment: DMSO) 5.11 ± 0.15; (treatment: MLN4924 1 uM, 8 h) 5.09 ± 0.35.

For the sequence QPPPQSSEGLVGALMHVMQKRSRA [WAS], the protein stability index by setting is: (treatment: DMSO) 4.21 ± 0.41; (treatment: MLN4924 1 uM, 8 h) 4.24 ± 0.12.

QQQHIECVVCGDKSSGKHYGQFTC [NR2F2]: the protein stability index reads like this: (treatment: DMSO) 3.06 ± 0.24; (treatment: MLN4924 1 uM, 8 h) 3.12 ± 0.48.

In turn, QREEHELVHVMERSLSPSLSSVDM [RAD54B] showed a protein stability index (treatment: DMSO) of 4.62 ± 0.31 and a protein stability index (treatment: MLN4924 1 uM, 8 h) of 4.76 ± 0.11.

With QRGRVISLWERLEFVNGWYILLVT [MCOLN1], the protein stability index is, setting by setting: (treatment: DMSO) 2.79 ± 0.68; (treatment: MLN4924 1 uM, 8 h) 2.67 ± 0.65.

The sequence QSGFEMLKDVKSTLEKCEKVKTME [TRIM39] came in with a protein stability index (treatment: DMSO) of 5.11 ± 0.2 and a protein stability index (treatment: MLN4924 1 uM, 8 h) of 4.86 ± 0.2.

In the case of QSGLVWTNCWLIRELNLPFGGMKS [ALDH8A1], the protein stability index is, setting by setting: (treatment: DMSO) 2.6 ± 0.48; (treatment: MLN4924 1 uM, 8 h) 2.61 ± 0.68.

QTAVQFQQYAAQQYPGNYEQQQIL [ACBD3]: the protein stability index runs as follows: (treatment: DMSO) 3.71 ± 0.22; (treatment: MLN4924 1 uM, 8 h) 3.61 ± 0.23.

Sequence QTESGSEEVSSTVHIETFTTRHGE [C10orf62] returned a protein stability index (treatment: DMSO) of 5.21 ± 0.3 and a protein stability index (treatment: MLN4924 1 uM, 8 h) of 5.27 ± 0.34.

Regarding QTLQALNFCHIHNCIHRDIKPENI [CDKL4], the protein stability index runs as follows: (treatment: DMSO) 2.47 ± 0.28; (treatment: MLN4924 1 uM, 8 h) 2.34 ± 0.26.

As for QVAMPYQWEYPYLLSILPSLLGLL [JAGN1], the protein stability index runs as follows: (treatment: DMSO) 2.8 ± 0.36; (treatment: MLN4924 1 uM, 8 h) 2.85 ± 0.64.

With QVDPGTDLEPGVLMSAQTITSETT [EPB41L3], the protein stability index is, setting by setting: (treatment: DMSO) 5.21 ± 0.32; (treatment: MLN4924 1 uM, 8 h) 5.16 ± 0.13.

Regarding QVPSGEDQTALSLEECLRLLEATC [NFE2L1], the protein stability index came to 4.02 ± 0.98 (treatment: DMSO) and 3.96 ± 0.31 (treatment: MLN4924 1 uM, 8 h).

In the case of QWEYPYLLSILPSLLGLLSFPRNN [JAGN1], the protein stability index (treatment: DMSO) stood at 2.85 ± 0.25 and the protein stability index (treatment: MLN4924 1 uM, 8 h) worked out at 2.94 ± 0.35.

Sequence RAACFDGHLEIVKYLVEHKADLEV [FEM1C] showed a protein stability index (treatment: DMSO) of 2.59 ± 0.31 and a protein stability index (treatment: MLN4924 1 uM, 8 h) of 2.66 ± 0.58.

As to RADFVLAANSYDLAIKAITSSAKV [FKBP8], the protein stability index is, setting by setting: (treatment: DMSO) 2.72 ± 0.18; (treatment: MLN4924 1 uM, 8 h) 2.84 ± 0.3.

Consider RADVDHAIEKAFQLWSNVTPLTFT [MMP1], for which the protein stability index came out at 2.13 ± 0.2 (treatment: DMSO) and 2.44 ± 0.32 (treatment: MLN4924 1 uM, 8 h).

Consider RAGSQVVATTARHSAAYRADPLRV [FUNDC2], for which the protein stability index (treatment: DMSO) stood at 3.59 ± 0.22 and the protein stability index (treatment: MLN4924 1 uM, 8 h) stood at 3.78 ± 0.17.

RANRGILQQERQRLGQRQPPPSEP [DNAJC4]: the protein stability index turned out to be 4.79 ± 0.22 (treatment: DMSO) and 4.79 ± 0.087 (treatment: MLN4924 1 uM, 8 h).

RAVDWWALGILIFEMLSGFPPFFD [PRKX]: the protein stability index reads like this: (treatment: DMSO) 2.99 ± 0.42; (treatment: MLN4924 1 uM, 8 h) 2.78 ± 0.57.

Regarding RDNGDPSLSSTATVLLVLEDEDPE [PCDHGC5], the protein stability index reads like this: (treatment: DMSO) 4.94 ± 0.36; (treatment: MLN4924 1 uM, 8 h) 5.16 ± 0.12.

Regarding RDQGSSALSGVGGIRLPNGKLKCD [IKZF1], the protein stability index by setting is: (treatment: DMSO) 4.66 ± 0.33; (treatment: MLN4924 1 uM, 8 h) 4.68 ± 0.32.

As to RDQHPQPSLGDSLESIPSLSQSPE [RTN2], the protein stability index is, setting by setting: (treatment: DMSO) 5.44 ± 0.18; (treatment: MLN4924 1 uM, 8 h) 5.55 ± 0.12.

RDSHGKGIPNAIISVEGINHDIRT [CPXM2]: the protein stability index reads like this: (treatment: DMSO) 4.2 ± 0.21; (treatment: MLN4924 1 uM, 8 h) 4.17 ± 0.27.

As for RDWWNSTSFSNYYRTWNVVVHDWL [SOAT2], the protein stability index (treatment: DMSO) worked out at 2.35 ± 0.34 and the protein stability index (treatment: MLN4924 1 uM, 8 h) is 2.26 ± 0.21.

RDYIHSLKLLNVLEEYITDEQKEE [FAM9B]: the protein stability index runs as follows: (treatment: DMSO) 3.37 ± 0.38; (treatment: MLN4924 1 uM, 8 h) 3.52 ± 0.34.
